The source of these data is patent publication US20180217151A1 (MILTENYI BIOTEC, published 2018).

Common to all, as to experiment: SPR (Biacore), recombinant antigen (extracellular domain) immobilized by amine coupling, Fab as analyte, 1:1 binding mass transfer model
A general note: SPR reads the build-up and loss of mass on a sensor chip optically.

One assay addresses recombinant CD3 antigen ( (the Fab labels human PBMCs)). How it is done: (§1) FIGS. 7A and 7B show surface plasmon resonance sensorgrams of anti-CD25 rFabs using immobilized recombinant CD25 antigen. At t 110 sec, different concentrations of Fab were injected for 180 sec. At t 290 sec, the dissociation phase started.
(§2) The Fab variants of example 1 and 4 were analyzed by surface plasmon resonance spectroscopy (Biacore™). Therefore, the specific recombinant antigen (extracellular domain, expressed in mammalian cells) for a Fab was immobilized on a CMS chip by standard amine coupling. The Fab variants were used as analytes in HBS-EP buffer (0.01 M HEPES pH 7.4, 0.15 M NaCl, 3 mM EDTA, 0.005% v/v Surfactant P20) in a concentration of up to 2 μM Fab. Evaluation was conducted with the Biacore™ X-100 Evaluation Software using an 1:1 binding mass transfer model.

The target of the next assay is T1, recombinant CD4 antigen ( (the Fab labels human PBMCs), UniProt P01730).
T1 construct: extracellular domain; also called CD4, recombinant extracellular domain
The method, then:
as §1, §2

The target in another assay is T2, recombinant CD28 antigen ( (the Fab labels human PBMCs), UniProt P10747).
T2 construct: extracellular domain; also called CD28, recombinant extracellular domain
The method, then:
as §1, §2

The target of assay [1] is T3, recombinant CD45RA antigen ( (the Fab labels human PBMCs)).
T3 construct: extracellular domain; also called CD45RA, recombinant extracellular domain
How it is done:
as §1, §2

The target of another assay is T4, recombinant CD25 antigen ( (the Fab labels human PBMCs), UniProt P01589).
T4 construct: extracellular domain; also called immobilized recombinant CD25 antigen; CD25, recombinant extracellular domain
T4 sequence (antigen, looked up): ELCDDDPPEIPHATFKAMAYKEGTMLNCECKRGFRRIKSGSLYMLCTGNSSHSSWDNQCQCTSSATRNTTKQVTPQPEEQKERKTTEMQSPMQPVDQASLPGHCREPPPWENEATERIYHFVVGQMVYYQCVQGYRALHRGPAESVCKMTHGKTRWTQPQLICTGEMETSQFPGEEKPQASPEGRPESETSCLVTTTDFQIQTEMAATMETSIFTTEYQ
The method, then: as §1, §2

Numbering of substitutions follows the chain as printed.

Chain of recombinant CD3 antigen ( (the Fab labels human PBMCs)) (chain, as listed by the source): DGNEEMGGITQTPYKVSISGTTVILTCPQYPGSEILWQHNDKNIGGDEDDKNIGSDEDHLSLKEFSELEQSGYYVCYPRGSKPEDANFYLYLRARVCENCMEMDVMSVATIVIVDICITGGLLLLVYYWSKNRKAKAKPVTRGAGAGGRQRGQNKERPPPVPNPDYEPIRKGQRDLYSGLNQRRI

B1: OKT3-hum rFab (Fab, V domains shown)
VH: QVQLVQSGGGVVQPGRSLRLSCKASGYTFTRYTMHWVRQAPGKGLEWIGYINPSRGYTNYNQKVKDRFTISRDNSKNTAFLQMDSLRPEDTGVYFCARYYDDHYSLDYWGQGTPVTVSS
VL: DIQMTQSPSSLSASVGDRVTITCSASSSVSYMNWYQQTPGKAPKRWIYDTSKLASGVPSRFSGSGSGTDYTFTISSLQPEDIATYYCQQWSSNPFTFGQGTKLQITR
modifications: For the cell assay: biotin (thiol-reactive reagent) on cysteine(s) of the reduced disulfide bridge, position not stated
notes: Recombinant Fab from E. coli; purified by IMAC; also called humanized variant of anti-CD3 clone OKT3; anti-CD3 rFab
For B1, in the assay with recombinant CD3 antigen, the Kd (in general, the free concentration of one partner at which half of the binding sites on the other are occupied at equilibrium, for simple one-to-one binding) worked out at 46 nM; the off-rate constant (koff) (in general, a measure of how fast the partners let go of each other) came to 0.19 s⁻¹; the kon (usually the rate constant with which the complex forms) came to 4.1e+06 M⁻¹ s⁻¹.

B2: 13B8.2-LAV rFab (Fab, V domains shown)
VH: QVQLKQSGPGLVQPSQSLSITCTVSGFSLTTFGVHWVRQSPGKGLEWLGVIWASGITDYNVPFMSRLSITKDNSKSQVFFKLNSLQPDDTAIYYCAKNDPGTGFAYWGQGTLVTVSA
VL: DIQMTQSPASLSASVGETVTFTCRASENIYSYLAWYQQKQGKSPQLLVHDAKTLAEGVPSRFSGGGSGTQFSLKINTLQPEDFGTYYCQHAYGNPPTFGGGTKLEIKR
modifications: For the cell assay: biotin (thiol-reactive reagent) on cysteine(s) of the reduced disulfide bridge, position not stated
notes: Recombinant Fab from E. coli; heavy chain optionally followed by a poly-histidine tag; Biotinylated for the cell assay; also called mutated variant of anti-CD4 clone 13B8.2
On to B2, for which, in the assay with recombinant CD4 antigen, the Kd is 15000 nM, the koff was 0.006 s⁻¹ and the kon turned out to be 410 M⁻¹ s⁻¹.

B3: 15E8-hum rFab (Fab, V domains shown)
VH: QVQLQESGPGLVKPSETLSLTCTVSGFSLTSYGVHWIRQPPGKGLEWLGVIWAGGSTNYNSSLKSRVTISKDTSKNQVSLKLSSVTAADTAVYYCARDKRAPGKLYYGYPDYWGQGTTLTVSS
VL: DIVMTQSPDSLAVSLGERATINCRASESVEYYVTSLMQWYQQKPGQPPKLLIYAASNVESGVPARFSGSGSGTDFTLTISPLQAEDVAVYYCQQTRKVPSTFGGGTKLEIKR
modifications: For the cell assay: biotin (thiol-reactive reagent) on cysteine(s) of the reduced disulfide bridge, position not stated
notes: Recombinant Fab from E. coli; heavy chain optionally followed by a poly-histidine tag; Biotinylated for the cell assay; also called humanized variant of anti-CD28 clone 15E8
Turning to B3, in the assay with recombinant CD28 antigen, the dissociation constant (Kd) worked out at 21 nM, the koff worked out at 0.089 s⁻¹ and the kon came to 4.3e+06 M⁻¹ s⁻¹.

B4: MEM56-LAV rFab (Fab, V domains shown)
VH: QVQLQQSGAELAKPGASVKMSCKASGYNFTRYWMHWIKQRPGQGLEWIGYINPNTGHTEYNQKFKDKATLTADKSSSTAYMQLSSLTSEDSAVYYCATYYYGSRRDAGQGTTLTVSS
VL: QIVLTQSPAIMSASLGERVTMTCTTSSSVSSSYLHWYQQKPGSSPKLWIYSTSNLASGVPARFSGSGSGTSYSLTISTVEAEDAATYYCHQYHRSPLTFGAGTKLELKR
modifications: In the cell assay the Fab was biotinylated with a thiol-reactive reagent (e.g. maleimide-PEO2-biotin) on cysteines of the reduced disulfide bridge; positions not stated.
notes: Recombinant Fab from E. coli; heavy chain optionally followed by a poly-histidine tag; Biotinylated for the cell assay; also called mutated variant of anti-CD45RA clone MEM56
Turning to B4, in assay [1], the Kd was 1300 nM, the koff amounted to 0.11 s⁻¹ and the kon amounted to 88000 M⁻¹ s⁻¹.

B5: RFT5 rFab (Fab, V domains shown)
VH: EVQLQQSGTVLARPGASVKMSCKASGYSFTRYWMHWIKQRPGQGLEWIGAIYPGNSDTSYNQKFEGKAKLTAVTSASTAYMELSSLTHEDSAVYYCSRDYGYYFDFWGQGTTLTVSS
VL: QIVLTQSPAIMSASPGEKVTMTCSASSSISYMQWYQQKPGTSPKRWIYDTSKLASGVPARFSGSGSGTSYSLTISSMEAEDAATYYCHQRSSYTFGGGTKLEIKR
modifications: For the cell assay: biotin (thiol-reactive reagent) on cysteine(s) of the reduced disulfide bridge, position not stated
notes: Recombinant Fab from E. coli; heavy chain optionally followed by a poly-histidine tag; Biotinylated for the cell assay; also called anti-CD25 rFab (based on clone RFT5)
As to B5, in the assay with recombinant CD25 antigen, the Kd came to 0.2 nM, the koff stood at 0.00038 s⁻¹ and the kon was 1.9e+06 M⁻¹ s⁻¹.

B6: RFT5-LAV rFab (Fab, V domains shown)
VH: B5 VH with H35A, W107A
VL: B5 VL
modifications: For the cell assay: biotin (thiol-reactive reagent) on cysteine(s) of the reduced disulfide bridge, position not stated
notes: Recombinant Fab from E. coli; heavy chain optionally followed by a poly-histidine tag; Biotinylated for the cell assay; also called mutated variant of anti-CD25 clone RFT5
Take B6: in the assay with recombinant CD25 antigen, the Kd is 21 nM, the koff is 0.21 s⁻¹ and the on-rate (kon) was 1e+07 M⁻¹ s⁻¹.
